Experiments:
bat NLRP3 inflammasome = assay: ASC speck formation in HEK293T cells reconstituted with bat NLRP3-mCitrine and bat ASC-mPlum (ImageStream); assay type: cell-based, Pteropus alecto; conditions: bat NLRP3-mCitrine, bat ASC-mPlum, ASC2-LSSmOrange overexpressed, FIG. 3B
Source text: (§1) Inflammasome activation assays.
ImageStream imaging flow cytometry. […] Nuclei were stained with DAPI.

NLRP3 inflammasome = NLRP3 inflammasome (Homo sapiens, UniProt Q9ULZ3); assay: ASC speck formation by flow cytometry in reconstituted HEK293T cells (human NLRP3-mCitrine, human ASC-mPlum) with ASC2 of various species; assay type: cell-based; parameters: expressed in transfected cells; host or cells: HEK293T; conditions: 50 ng ASC2-LSSmOrange, 48 h, FIG. 27A
Description: Plasmids. ASC2 sequences of 16 non-primate non-bat species were gene synthesized (IDT) and cloned into pQCXIH-LSSmOrange vector (Clontech). All constructs were prepared with endotoxin-free plasmid kits (Omega Bio-tek).
Transfection. HEK293T cells were seeded at 3×10^5/mL in 96-well plate overnight. […] 48 h post-transfection, cells were harvested for flow cytometry analysis.

AIM2 inflammasome = target: T1, AIM2 inflammasome (Mus musculus, UniProt Q9EPB4); assay: Inflammasome activation in LPS-primed BMDMs of bat ASC2/rtTA mice transfected with poly(dA:dT); assay type: cell-based; conditions: Dox, LPS 3 h, poly(dA:dT) transfection 4 h, FIG. 5D, 5E
T1 construct: endogenous in cells; host or cells: BMDMs of wild-type and bat ASC2/rtTA mice
T1 sequence (Q9EPB4 1-193): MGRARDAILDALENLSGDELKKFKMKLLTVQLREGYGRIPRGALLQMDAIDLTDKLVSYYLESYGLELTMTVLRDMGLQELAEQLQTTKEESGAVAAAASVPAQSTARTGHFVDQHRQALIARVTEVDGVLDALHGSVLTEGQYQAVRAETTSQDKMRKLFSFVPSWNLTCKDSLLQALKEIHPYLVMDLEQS
Source text: as §1

Zika virus (ZIKV) = assay type: cell-based, mouse; conditions: bat ASC2/rtTA vs WT BMDMs, ZIKV MOI=1, 24 h, Dox; FIG. 10F
[1] = target: NLRP1 inflammasome (Homo sapiens); assay: Talabostat-induced inflammasome activation in N/TERT-1 keratinocytes stably expressing ASC2-mCitrine; conditions: N/TERT-1, talabostat 0, 20, 200 μM, 24 h; FIG. 25B
Description: (§2) Immortalized N/TERT-1 keratinocyte were cultured in KSFM media (Gibco) supplemented with 30 g/ml BPE, 0.1 ng/ml rEGF, and 0.3 mM calcium chloride.
(§3) GP2-293 cells stably expressing gag and pol proteins, were co-transfected with pVSV-G envelope vector and mCitrine-only empty vector, bat or human ASC2-mCitirine pQCXIH vector for 48 h. Supernatants containing retroviruses were collected, centrifuged at 500 g for 10 min. N/TERT-1 cells were transduced with low MOI of retrovirus for 24 h to obtain a single viral copy per transduced cell. 72 h post-transduction, cells were selected by 20 μg/mL Hygromycin B antibiotic for at least 1 week to ensure stable expression. The stable cells were FACS-sorted for equal fluorescent intensity to ensure the same expression levels across cell lines.
(§4) Inflammasome activation assay. N/TERT-1 cells in KSFM without antibiotics were seeded at 1.8×10^5/mL into 96-well plates overnight. Cells were treated with various concentrations (0, 20, 200 μM) of talabostat dissolved in DMSO for 24 h. DMSO concentration is controlled at 0.5% for all treated wells.

NLRP1 inflammasome = NLRP1 inflammasome (Homo sapiens, UniProt Q9ULZ3); assay: as above
Description: as §2, §3, §4

[2] = test system: peritonitis induced by ASC specks; assay: Peritonitis induced by ASC specks in bat ASC2/rtTA mice; assay type: in vivo, mouse; conditions: bat ASC2/rtTA vs WT mice, oral Dox 7 days, ASC-mPlum specks i.p., 4 h
[3] = target: T2, PYD-PYD interaction of human ASC (Homo sapiens, UniProt Q9ULZ3); assay: NanoBiT inhibition assay of PYD-PYD interaction in HEK293T cells; assay type: cell-based; conditions: LgBiT/SmBiT-tagged PYD pairs 10 or 1 ng each, bat ASC2-LSSmOrange 10 ng, FIG. 19, 20
T2 construct: Human ASC PYRIN domain (PYD) was PCR amplified; linker […]; expressed in transfected cells; host or cells: HEK293T
Source text: Plasmids. Vectors were constructed by standard molecular cloning with pcDNA3.1 (+) as the backbone. Restriction enzyme sites used include NheI, AgeI (introduced), HindIII, BamHI, XhoI, and XbaI from 5′ to 3′ sequentially. […]. The N-terminal and C-terminal inserts of human ASC PYD or NanoBiT tags were flanked by AgeI/HindIII and BamHI/XhoI, respectively. The linker (GSSGGGGSGGGGSSG) flanked by HindIII/BamHI and C-terminal His10-tag flanked by XhoI/XbaI was oligo annealed. The gene fragments were introduced into the backbone by single, double, or triple insertions. The resulting vectors were sequenced using CMV-F and BGH-rev primers.
Cell Culture and Transfection. HEK293T cells were cultured in modified Eagle's medium (DMEM) with 10% fetal bovine serum in humidified 37° C. incubator with 5% CO2. Cells were seeded at a density of 3×10^5 cells/mL one day prior to transient transfection using Fugene 6 transfection reagent (Promega) according to the manufacturer's instructions. At 24 h post-transfection, cells are harvested for analyses.
NanoBiT and Inhibition Assay. White opaque plates were coated with 50 μL of 0.001% poly-L-lysine for at least 15 min at 37° C. and air-dried before seeding 3×10^5 cells/mL HEK239T cells. […] Luminescence is immediately quantified using BioTek Cytation 5 with a gain of 135 and an integration time of 1 s.

NLRP1 inflammasome, sequence (Q9ULZ3 whole entry): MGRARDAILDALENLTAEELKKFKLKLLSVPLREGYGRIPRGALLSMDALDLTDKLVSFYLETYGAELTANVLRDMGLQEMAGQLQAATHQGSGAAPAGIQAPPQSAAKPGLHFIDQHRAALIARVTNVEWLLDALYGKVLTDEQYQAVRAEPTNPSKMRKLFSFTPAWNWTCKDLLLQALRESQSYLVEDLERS
T2 sequence (Q9ULZ3 1-91 limits assumed): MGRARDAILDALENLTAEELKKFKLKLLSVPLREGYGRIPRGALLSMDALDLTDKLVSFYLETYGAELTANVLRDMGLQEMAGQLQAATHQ
NLRP3 inflammasome, sequence (Q9ULZ3 whole entry): as the sequence (Q9ULZ3 whole entry) above
NLRP1 inflammasome (Homo sapiens), sequence (Q9ULZ3 whole entry): as above

B1: bat ASC2: ASC2 (PYRIN-only protein) of the bat Pteropus alecto, SEQ ID NO:11; expressed from vectors or as Dox-inducible transgene (protein)
chain: MGKKRDAILEALENLTADELKKFKLKLGAAPLRQGFRNIPRGALGPLDAVDLTDKLVAFYCEDYGAELTAVVLRDIGMQEEAERLQGVA
Bat NLRP3 inflammasome
  ASC speck formation (bat NLRP3 inflammasome activation): inhibited bat NLRP3 inflammasome
NLRP3 inflammasome
  Effect on inflammasome activation (ASC speck formation): inhibitory effect
AIM2 inflammasome
  Activation of AIM2 inflammasome (LDH release, IL-1β): suppressed the activation
Zika virus (ZIKV)
  IL-1β secretion triggered by ZIKV: substantially inhibited
[1]
  Cell death (LDH release): reduces cell death
NLRP1 inflammasome; N/TERT-1, talabostat 0, 20, 200 μM, 24 h, FIG. 25C
  IL-1β secretion: reduces IL-1β secretion
NLRP1 inflammasome; human skin cells (N/TERT-1)
  Potency in inhibiting NLRP1 inflammasomes compared with human ASC2: significantly more potent
[2]; FIG. 8E
  Recruitment of neutrophils (peritoneal lavage): suppressed
[2]; FIG. 8F
  IL-1β release (peritoneal lavage): suppressed
[3]
  PYD-PYD protein-protein interaction (NanoBiT luminescence signal): inhibit PYD-PYD protein-protein interaction
